Reference: publication PMC10570122 (iScience, 2023)

Key:
[1] = molecular target: T1, SARS-CoV-2 WT stabilized soluble spike protein, hexahistidine-tagged (SARS-CoV-2 Wuhan-Hu-1, UniProt P0DTC2, stabilised); assay: BLI; details: both partners purified
T1 construct: also called WT SARS-CoV-2 S

[2] = molecular target: T2, SARS-CoV-2 WT soluble RBD (residues 319-541) (SARS-CoV-2 Wuhan-Hu-1, UniProt P0DTC2); assay: ELISA; details: both partners purified
T2 construct: also called WT RBD; WT D614G RBD gene fragment

B1: COVA309-22 monoclonal antibody (human IgG1) (antibody, V domains shown)
VH: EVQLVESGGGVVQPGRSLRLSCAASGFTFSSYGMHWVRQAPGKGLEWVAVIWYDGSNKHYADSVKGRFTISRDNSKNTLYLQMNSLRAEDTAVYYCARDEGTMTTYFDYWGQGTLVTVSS
VL: EIVLTQSPSSLSASVGDRVTITCRASQSISSYLNWYQQKPGKAPKLLIYDASSLQSGVPSRFSGSGSGTDFTLTISSLQPEDFATYYCQQSYSTPPWTFGQGTKVEIK
**Q.** Does B1 bind [1]?
**A.** Result: binds

**Q.** Does B1 bind [2]?
**A.** Result: binds
